In patent publication US20220025406:

Key:
Assay in all cases: cell_activity
[1] = system: gp3-phiC31 integrase fusion (Streptomyces phage phiC31?); conditions: HeLa CI.24.22.21.3, attL x attR recombination, 13 of 27 clones
[2] = system: phiC31 integrase (Streptomyces phage phiC31?); conditions: HeLa CI.24.22, 4 of 24 clones positive
[3] = system: hyperactive piggyBac transposase (HAhyPBase); conditions: excision in HeLa (step 1 and step 3 both 17%); 46% in hiPS cells (Table 17)
[4] = system: Sleeping Beauty transposase SB100X; conditions: excision in HeLa, 3 of 21 clones

Question: With phiC31 attL (genomic) x attR (pEP50) as the substance, how does the activity [1] read?
Answer: 48%

Question: Which activity [2] does the source give for phiC31 attB (pEP24) x attP (pEP28) here?
Answer: 16%

Question: How did the activity [3] turn out when piggyBac ITRs flanking puro-delta-tk was run?
Answer: 17%

Question: Which activity [4] does the source give for “Sleeping Beauty ITRs flanking puro-delta-tk” here?
Answer: 14%
